Laboratory results as given in IntAct's records for PubMed 31515488.

B1: DCC-interacting protein 13-alpha (Homo sapiens), Q9UKG1 (parent)
chain: MPGIDKLPIEETLEDSPQTRSLLGVFEEDATAISNYMNQLYQAMHRIYDAQNELSAATHLTSKLLKEYEKQRFPLGGDDEVMSSTLQQFSKVIDELSSCHAVLSTQLADAMMFPITQFKERDLKEILTLKEVFQIASNDHDAAINRYSRLSKKRENDKVKYEVTEDVYTSRKKQHQTMMHYFCALNTLQYKKKIALLEPLLGYMQAQISFFKMGSENLNEQLEEFLANIGTSVQNVRREMDSDIETMQQTIEDLEVASDPLYVPDPDPTKFPVNRNLTRKAGYLNARNKTGLVSSTWDRQFYFTQGGNLMSQARGDVAGGLAMDIDNCSVMAVDCEDRRYCFQITSFDGKKSSILQAESKKDHEEWICTINNISKQIYLSENPEETAARVNQSALEAVTPSPSFQQRHESLRPAAGQSRPPTARTSSSGSLGSESTNLAALSLDSLVAPDTPIQFDIISPVCEDQPGQAKAFGQGGRRTNPFGESGGSTKSETEDSILHQLFIVRFLGSMEVKSDDHPDVVYETMRQILAARAIHNIFRMTESHLLVTCDCLKLIDPQTQVTRLTFPLPCVVLYATHQENKRLFGFVLRTSSGRSESNLSSVCYIFESNNEGEKICDSVGLAKQIALHAELDRRASEKQKEIERVKEKQQKELNKQKQIEKDLEEQSRLIAASSRPNQASSEGQFVVLSSSQSEESDLGEGGKKRESEA
partner: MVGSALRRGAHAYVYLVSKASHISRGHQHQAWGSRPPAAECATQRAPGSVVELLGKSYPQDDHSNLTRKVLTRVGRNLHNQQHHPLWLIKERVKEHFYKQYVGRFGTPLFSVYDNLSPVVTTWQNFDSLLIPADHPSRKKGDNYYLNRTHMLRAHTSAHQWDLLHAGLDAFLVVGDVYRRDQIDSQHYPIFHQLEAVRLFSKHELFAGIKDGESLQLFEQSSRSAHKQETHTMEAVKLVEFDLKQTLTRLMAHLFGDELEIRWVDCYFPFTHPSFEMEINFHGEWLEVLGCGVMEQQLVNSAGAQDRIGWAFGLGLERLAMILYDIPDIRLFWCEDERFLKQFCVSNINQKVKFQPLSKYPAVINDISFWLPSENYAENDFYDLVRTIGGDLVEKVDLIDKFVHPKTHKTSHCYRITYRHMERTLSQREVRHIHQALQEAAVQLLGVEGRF
B2: Syntenin-1 (Homo sapiens), O00560 (parent)
chain: MSLYPSLEDLKVDKVIQAQTAFSANPANPAILSEASAPIPHDGNLYPRLYPELSQYMGLSLNEEEIRANVAVVSGAPLQGQLVARPSSINYMVAPVTGNDVGIRRAEIKQGIREVILCKDQDGKIGLRLKSIDNGIFVQLVQANSPASLVGLRFGDQVLQINGENCAGWSSDKAHKVLKQAFGEKITMTIRDRPFERTITMHKDSTGHVGFIFKNGKITSIVKDSSAARNGLLTEHNICEINGQNVIGLKDSQIADILSTSGTVVTITIMPAFIFEHIIKRMAPSIMKSLMDHTIPEV
partner: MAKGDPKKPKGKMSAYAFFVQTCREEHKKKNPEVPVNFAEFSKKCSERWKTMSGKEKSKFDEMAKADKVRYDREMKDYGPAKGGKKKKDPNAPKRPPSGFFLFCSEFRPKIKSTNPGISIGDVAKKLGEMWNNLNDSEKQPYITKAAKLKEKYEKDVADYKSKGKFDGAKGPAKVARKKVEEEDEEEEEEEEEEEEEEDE
B3: Nuclear autoantigen Sp-100 (Homo sapiens), P23497 (parent)
chain: MAGGGGDLSTRRLNECISPVANEMNHLPAHSHDLQRMFTEDQGVDDRLLYDIVFKHFKRNKVEISNAIKKTFPFLEGLRDRDLITNKMFEDSQDSCRNLVPVQRVVYNVLSELEKTFNLPVLEALFSDVNMQEYPDLIHIYKGFENVIHDKLPLQESEEEEREERSGLQLSLEQGTGENSFRSLTWPPSGSPSHAGTTPPENGLSEHPCETEQINAKRKDTTSDKDDSLGSQQTNEQCAQKAEPTESCEQIAVQVNNGDAGREMPCPLPCDEESPEAELHNHGIQINSCSVRLVDIKKEKPFSNSKVECQAQARTHHNQASDIIVISSEDSEGSTDVDEPLEVFISAPRSEPVINNDNPLESNDEKEGQEATCSRPQIVPEPMDFRKLSTFRESFKKRVIGQDHDFSESSEEEAPAEASSGALRSKHGEKAPMTSRSTSTWRIPSRKRRFSSSDFSDLSNGEELQETCSSSLRRGSGSQPQEPENKKCSCVMCFPKGVPRSQEARTESSQASDMMDTMDVENNSTLEKHSGKRRKKRRHRSKVNGLQRGRKKDRPRKHLTLNNKVQKKRWQQRGRKANTRPLKRRRKRGPRIPKDENINFKQSELPVTCGEVKGTLYKERFKQGTSKKCIQSEDKKWFTPREFEIEGDRGASKNWKLSIRCGGYTLKVLMENKFLPEPPSTRKKRILESHNNTLVDPCEEHKKKNPDASVKFSEFLKKCSETWKTIFAKEKGKFEDMAKADKAHYEREMKTYIPPKGEKKKKFKDPNAPKRPPLAFFLFCSEYRPKIKGEHPGLSIDDVVKKLAGMWNNTAAADKQFYEKKAAKLKEKYKKDIAAYRAKGKPNSAKKRVVKAEKSKKKKEEEEDEEDEQEEENEEDDDK
partner: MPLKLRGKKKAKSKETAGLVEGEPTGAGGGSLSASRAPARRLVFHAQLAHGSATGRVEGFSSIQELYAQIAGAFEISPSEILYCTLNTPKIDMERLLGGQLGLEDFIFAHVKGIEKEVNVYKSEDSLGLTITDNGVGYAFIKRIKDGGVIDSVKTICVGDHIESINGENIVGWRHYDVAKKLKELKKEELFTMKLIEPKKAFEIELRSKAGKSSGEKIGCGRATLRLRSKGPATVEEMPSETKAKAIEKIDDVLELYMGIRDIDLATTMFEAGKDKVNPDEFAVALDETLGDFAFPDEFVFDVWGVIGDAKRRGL
B4: Homeobox protein VENTX (Homo sapiens), O95231 (parent)
chain: MRLSSSPPRGPQQLSSFGSVDWLSQSSCSGPTHTPRPADFSLGSLPGPGQTSGAREPPQAVSIKEAAGSSNLPAPERTMAGLSKEPNTLRAPRVRTAFTMEQVRTLEGVFQHHQYLSPLERKRLAREMQLSEVQIKTWFQNRRMKHKRQMQDPQLHSPFSGSLHAPPAFYSTSSGLANGLQLLCPWAPLSGPQALMLPPGSFWGLCQVAQEALASAGASCCGQPLASHPPTPGRPSLGPALSTGPRGLCAMPQTGDAF
partner: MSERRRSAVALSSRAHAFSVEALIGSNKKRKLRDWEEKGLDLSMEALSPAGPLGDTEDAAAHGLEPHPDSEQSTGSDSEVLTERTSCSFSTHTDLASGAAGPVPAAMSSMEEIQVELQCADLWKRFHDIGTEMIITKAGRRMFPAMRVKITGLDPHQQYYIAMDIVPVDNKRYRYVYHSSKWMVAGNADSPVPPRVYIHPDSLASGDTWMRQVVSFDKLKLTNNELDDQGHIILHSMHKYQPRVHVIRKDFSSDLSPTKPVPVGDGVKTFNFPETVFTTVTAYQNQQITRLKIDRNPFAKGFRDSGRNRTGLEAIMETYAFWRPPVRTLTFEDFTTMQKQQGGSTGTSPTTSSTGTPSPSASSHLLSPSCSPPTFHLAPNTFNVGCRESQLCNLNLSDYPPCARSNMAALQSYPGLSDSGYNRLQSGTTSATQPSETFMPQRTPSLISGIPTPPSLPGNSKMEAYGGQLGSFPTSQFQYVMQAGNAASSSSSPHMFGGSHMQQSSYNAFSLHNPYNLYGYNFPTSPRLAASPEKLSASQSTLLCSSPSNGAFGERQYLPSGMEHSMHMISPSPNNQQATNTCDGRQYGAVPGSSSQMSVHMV

Variants of: B1
Conditions: with syfm_human FARS2, O95363

effect of a mutation on the interaction	Variant
with no effect	E643Q
with no effect	E67G

Variants of: B2
Conditions: with hmgb3_human HMGB3, O15347

effect of a mutation on the interaction	Variant
with no effect	K124R

Variants of: B3
Conditions: with gipc2_human GIPC2, Q8TF65

effect of a mutation on the interaction	Variant
with no effect	M433V

Variants of: B4
Conditions: with tbx15_human TBX15, Q96SF7

effect of a mutation on the interaction	Variant
with no effect	M251V
with no effect	A226E
